The target in test [1] is HLA-A*0201 (Homo sapiens, UniProt P04439, /I218V/L300P/L318F/N151K/N90K/P208A/P217A/Q86G/Q94H/R138H/R169H/T345S). Nature of the test: ELISA-based HLA/peptide complex refolding assay, affinity to HLA-A*0201. It is filed as binding. From the text:
(§1) The objective of this analysis was to evaluate the affinity of the HLA class I peptides to the MHC molecule coded by the HLA-A*0201 allele as this is an important parameter for the mode of action of IMA910.
(§2) Stable HLA/peptide complexes consist of three molecules: HLA heavy chain, beta-2 microglobulin (b2m) and the peptidic ligand. The activity of denatured recombinant HLA-A*0201 heavy chain molecules alone can be preserved making them functional equivalents of “empty HLA-A*0201 molecules.” When diluted into aqueous buffer containing b2m and an appropriate peptide, these molecules fold rapidly and efficiently in an entirely peptide-dependent manner. The availability of these molecules is used in an ELISA-based assay to measure the affinity of interaction between peptide and HLA class I molecule (Sylvester-Hvid et al., 2002). Purified recombinant HLA-A*0201 molecules were incubated together with b2m and graded doses of the peptide of interest. The amount of de novo-folded HLA/peptide complexes was determined by a quantitative ELISA. Dissociation constants (KD values) were calculated using a standard curve recorded from dilutions of a calibrant HLA/peptide complex.

Test [2] deals with HLA-A*0201 (Homo sapiens, UniProt P04439, D140Y/D185E/D98H/E176V/E277Q/G131W/G231S/I119V/I121R/I166T/I218V/L300P/L318F/N151K/N90K/P208A/P217A/Q86G/Q94H/R138H/R169H/T345S). The test is described as above. It is filed as binding. Conditions: listed as IMA-MUC-001.
Excerpt: as §1, §2

Test [3] has as its system renal cell carcinoma patients. Conditions: cited from earlier work.

Entries after “also recorded” stand apart in the source; their conditions may differ.

Turning to STAPPVHNV (homo sapiens) [MUC-001], in the test with HLA-A*0201 [1], the “Affinity to HLA-A*0201” value is recorded as “relative low A*0201 affinity”. The “Affinity to HLA-A*0201 compared to the other ligands” value with HLA-A*0201 [2] is listed as “about two decades weaker; also recorded: about two to three decades lower”. The “T-cell / immune responses in vivo after vaccination” value in test [3] is “led to immune responses in renal cell carcinoma patients”.

These data come from patent US7994276B2, “Composition of tumour-associated peptides and related anti-cancer vaccine” (Immatics Biotechnologies GmbH, priority 2007, dated 2011).
